Reference: PMC4755954, “Impact of clinically tested NEP/ACE inhibitors on tumor uptake of [^111In-DOTA]MG11—first estimates for clinical translation” (EJNMMI Research, 2016)
Square brackets hold non-standard residues; d marks the D form. Peptide text beside a SMILES is read from it. * marks the point of attachment. DOTA = O=C(O)CN1CCN(CC(=O)O)CCN(CC(=O)*)CCN(CC(=O)O)CC1

Tests used:
[1] = iv infusion of 150 mg in 250 mL of isotonic glucose in 42 patients; cited from earlier work
Source text: Aiming at clinical translation, our interest has been attracted by two clinically certified NEP inhibitors, TO and its prodrug Race. TO is a potent, reversible NEP inhibitor with a relative rapid onset of action, but its water solubility is not ideal for iv injection as a bolus together with the radiopeptide. […] The impact of TO on the bioavailability and tumor uptake of our paradigm compound [^111In-DOTA] ...

in vivo [2] = experiment: in vivo; set-up: species or system SCID mice; settings: male, SCID, mouse, iv, 10 pmol total peptide, total radioactivity, %ID/g tissue ± SD
Protocol: In-house male SCID mice (NCSR “Demokritos” Animal House) of 6 weeks of age at the time of arrival (18 ± 2 g body weight) were inoculated subcutaneously (sc) in their flanks with a suspension of freshly harvested AR42J cells (1 × 10^7 cells in ~150 μL saline). Animals were kept in aseptic conditions for 14 days when well-palpable tumors developed at the inoculation sites (0.31 ± 0.17 g). At the day of biodistribution, animals received a bolus of [^111In-DOTA]MG11 (100 μL, 37–74 kBq, 10 pmol total peptide, in saline/EtOH 9/1 v/v) through the tail vein, coinjected with (a) vehicle (100 μL; control group, n = 10), (b) PA (100 μL of vehicle containing 300 μg PA; PA group, n = 10), (c) TO (100 μL of vehicle containing 150 μg TO; TO group, n = 4), (d) Lis (100 μL of vehicle containing 100 μg Lis; Lis group, n = 4), (e) PA plus Lis (100 μL vehicle containing 300 μg PA and 100 μg Lis; PA+Lis group, n = 5), or (f) 30–40 min after ip injection of Race (3 mg Race dissolved in 0.025 mL DMSO and freshly mixed with 0.375 mL saline; Race group, n = 4). In a separate animal group, the mice were coinjected with 100 μL vehicle containing both 300 μg PA and 100 μg DG2 [25] to assess non-specific tumor uptake during in situ NEP inhibition (in vivo CCK2R blockade; block group, n = 4).
(§1) Mice had access to drinking water ad libitum until they were euthanized at 4 h pi. Blood samples, organs of interest, and tumors were collected immediately after dissection, weighted, and measured for radioactivity in the gamma counter; only stomachs were emptied of their contents prior to measurements. Biodistribution data were calculated as percent of injected dose per gram tissue (% ID/g) with the aid of suitable standards of the injected dose, using the GraphPad Prism Software (San Diego, CA).

in vivo [3] = experiment: in vivo; set-up: species or system SCID mice; settings: male, SCID, mouse, iv, 10 pmol total peptide, total radioactivity, %ID/g tissue ± SD; remark: listed apart in the source
Protocol: as §1
Inocula of freshly harvested A431-CCK2R(+/−) cells (1.6 × 10^7/1.4 × 10^7 cell suspensions in 150 μL saline) were sc-injected in the right and left flanks of the SCID mice (male SCID mice, 6 weeks of age and of 18 ± 2 g body weight on arrival day; NCSR “Demokritos” Animal House). The animals were kept in aseptic conditions for 8 days till well-palpable tumors (0.26 ± 0.08 g) developed at the inoculation sites. At the day of the experiment, the mice received a bolus of [^111In-DOTA]MG11 (100 μL, 37–74 kBq, 10 pmol total peptide, in saline/EtOH 9/1 v/v) through the tail vein, coinjected with (a) vehicle (100 μL; control group, n = 5), (b) three different doses of PA (3 μg, n = 5; 30 μg, n = 4; or 300 μg PA, n = 10, dissolved in 100 μL vehicle), and (c) three different doses of TO (1.5, 15, or 150 μg TO dissolved in 100 μL vehicle, all groups of n = 4). Mice had free access to drinking water until they were sacrificed at 4 h pi, and biodistribution was conducted as described above.

For `O=C(O)CNC(=O)C(CS)Cc1ccccc1` (racemic) [TO, DL-3-mercapto-2-benzylpropanoylglycine], the “hemodynamic tolerance in human” value [1] is listed as “excellent hemodynamic tolerance”.

For `CSCC[C@H](NC(=O)[C@H](Cc1c[nH]c2ccccc12)NC(=O)CNC(=O)[C@H](Cc1ccc(O)cc1)NC(=O)[C@H](C)NC(=O)[C@@H](CCC(=O)O)NC(=O)CN1CCN(CC(=O)O)CCN(CC(=O)O)CCN(CC(=O)O)CC1)C(=O)N[C@@H](CC(=O)O)C(=O)N[C@@H](Cc1ccccc1)C(N)=O` [[^111In-DOTA]MG11, metal not drawn] ({DOTA}-[dE]AYGWMDF-NH2), the tissue uptake at 4 h (in vivo [2]; Blood) was 0.04 ± 0.01 %ID/g, the tissue uptake at 4 h (in vivo [2]; Femur) was 0.09 ± 0.05 %ID/g and the tissue uptake at 4 h (in vivo [2]; Heart) was 0.05 ± 0.02 %ID/g. For the same compound, the tissue uptake at 4 h (in vivo [2]; Intestines) was 0.89 ± 0.76 %ID/g, the tissue uptake at 4 h (in vivo [2]; Kidneys) was 1.86 ± 0.25 %ID/g and the tissue uptake at 4 h (in vivo [2]; Liver) was 0.13 ± 0.03 %ID/g. For the same compound, the tissue uptake at 4 h (in vivo [2]; Lung) was 0.07 ± 0.02 %ID/g, the tissue uptake at 4 h (in vivo [2]; Muscle) was 0.04 ± 0.01 %ID/g and the tissue uptake at 4 h (in vivo [2]; Pancreas) was 0.11 ± 0.03 %ID/g. For the same compound, the tissue uptake at 4 h (in vivo [2]; Spleen) was 0.17 ± 0.07 %ID/g, the tissue uptake at 4 h (in vivo [2]; Stomach) was 1.53 ± 0.65 %ID/g and the tissue uptake at 4 h (in vivo [2]; Tumor (AR42J)) was 1.82 ± 1.25 %ID/g. The tissue uptake at 4 h (in vivo [3]; Blood) was 0.01 ± 0.01 %ID/g, the tissue uptake at 4 h (in vivo [3]; Femur) was 0.02 ± 0.01 %ID/g and the tissue uptake at 4 h (in vivo [3]; Heart) was 0.02 ± 0.01 %ID/g. The tissue uptake at 4 h (in vivo [3]; Intestines) was 0.83 ± 0.53 %ID/g, the tissue uptake at 4 h (in vivo [3]; Kidneys) was 1.3 ± 0.29 %ID/g and the tissue uptake at 4 h (in vivo [3]; Liver) was 0.11 ± 0.02 %ID/g. For the same compound, the tissue uptake at 4 h (in vivo [3]; Lung) was 0.03 ± 0.01 %ID/g, the tissue uptake at 4 h (in vivo [3]; Muscle) was 0.02 ± 0.01 %ID/g and the tissue uptake at 4 h (in vivo [3]; Pancreas) was 0.05 ± 0.02 %ID/g. For the same compound, the tissue uptake at 4 h (in vivo [3]; Spleen) was 0.06 ± 0.01 %ID/g, the tissue uptake at 4 h (in vivo [3]; Stomach) was 1.32 ± 0.26 %ID/g and the tissue uptake at 4 h (in vivo [3]; Tumor (+) (A431-CCK2R(+))) was 2.5 ± 0.92 %ID/g. For the same compound, the tissue uptake at 4 h (in vivo [3]; Tumor (−) (A431-CCK2R(−))) was 0.12 ± 0.02 %ID/g.
